Test results taken from PMC5388414 (Nucleic Acids Research, 2016).
Like-named read-outs stand apart in the source and are kept apart here.

Key:
Prp43 [1] = target: Prp43 (Saccharomyces cerevisiae, UniProt P53131, F357A); assay: ITC; format: binding
Prp43 [2] = target: T1, Prp43 (Saccharomyces cerevisiae, UniProt P53131); assay: ITC; format: binding
Prp43 [3] = target: T1, Prp43; assay: ITC; format: binding; remark: listed apart in the source
Prp43 R159A [4] = target: T2, Prp43 R159A (UniProt P53131 1-767, R159A); assay: filter binding
Prp43 F357A [5] = target: T3, Prp43 F357A (UniProt P53131 1-767, F357A); assay: filter binding
Prp43 R159A [6] = target: T2, Prp43 R159A; assay: filter binding; remark: listed apart in the source
Prp43 R159A [7] = target: T2, Prp43 R159A; assay: filter binding; remark: listed apart in the source
Prp43 [8] = target: T4, Prp43 (UniProt P53131 1-767); assay: filter binding
Prp43 F357A [9] = target: T3, Prp43 F357A; assay: filter binding; remark: listed apart in the source
Prp43 R159A [10] = target: T2, Prp43 R159A; assay: filter binding; remark: listed apart in the source
Prp43 [11] = target: T4, Prp43; assay: filter binding; remark: listed apart in the source
Prp43 F357A [12] = target: T3, Prp43 F357A; assay: filter binding; remark: listed apart in the source

## Nc1ncnc2c1ncn2[C@@H]1O[C@H](COP(=O)(O)OP(=O)(O)O)[C@@H](O)[C@H]1O [ADP]
Prp43 [1]
  Kd: > 45000 nM
Prp43 [2]
  Kd: 1450 nM

## Nc1ccn([C@@H]2O[C@H](COP(=O)(O)OP(=O)(O)O)[C@@H](O)[C@H]2O)c(=O)n1 [CDP]
Prp43 [3]
  Kd: > 25000 nM

B1: 21-mer ssRNA (ssRNA)
RNA: GACGGGCUGUUGGUGAUGGAC
Prp43 R159A [4]
  Kd: 8 ± 1 nM
Prp43 F357A [5]
  Kd: 43 ± 3 nM
Prp43 R159A [6]
  Kd: 18 ± 2 nM
Prp43 R159A [7]
  Kd: 3 ± 0.8 nM
Prp43 [8]
  Kd: 8 ± 3 nM
Prp43 F357A [9]
  Kd: 6 ± 1 nM
Prp43 R159A [10]
  Kd: 20 ± 4 nM
Prp43 [11]
  Kd: 42 ± 17 nM
Prp43 F357A [12]
  Kd: 14 ± 1 nM
